Measured values reported in patent publication US20160272693A1 (ZEALAND PHARMA A S, published 2016).
*1 amine or outer side, *2 acyl side, *3 side chain or, on linkers, in order; H or OH if unused. Bridges are numbered along the chain shown (N, C = ends). [ ]: non-standard residue; d: D form. The star is where a group is joined. Pro(trans-4-NH2) = O=C([C@@H]1C[C@@H](N[*:3])CN1[*:1])[*:2]; C20 diacid = O=C(O)CCCCCCCCCCCCCCCCCCC(=O)*; γGlu = O=C(O)[C@H](CCC(=O)[*:2])N[*:1]; Hyp = O=C(O)[C@@H]1C[C@@H](O)CN1; NMeI = CC[C@H](C)[C@H](NC)C(=O)O; Aad = N[C@@H](CCCC(=O)O)C(=O)O; Orn = NCCC[C@H](N)C(=O)O; Sar = CNCC(=O)O

B1: [19CD]-isoGlu-R-C( )-GTAT-C( )-ATERLAHFLTRSSF-Gly(Me)-A-Ile(Me)-LSSTEVGSST-Apr-NH2 (Compd. 45) (peptide)
peptide: {C20 diacid}-[γGlu]RCGTATCATERLAHFLTRSSF[Sar]A[NMeI]LSSTEVGSST[Pro(trans-4-NH2)]-NH2
modifications: disulfide 3-8
SMILES: CC[C@H](C)[C@@H](C(=O)N[C@@H](CC(C)C)C(=O)N[C@@H](CO)C(=O)N[C@@H](CO)C(=O)N[C@H](C(=O)N[C@@H](CCC(=O)O)C(=O)N[C@H](C(=O)NCC(=O)N[C@@H](CO)C(=O)N[C@@H](CO)C(=O)N[C@H](C(=O)N1C[C@H](N)C[C@H]1C(N)=O)[C@@H](C)O)C(C)C)[C@@H](C)O)N(C)C(=O)[C@H](C)NC(=O)CN(C)C(=O)[C@H](Cc1ccccc1)NC(=O)[C@H](CO)NC(=O)[C@H](CO)NC(=O)[C@H](CCCNC(=N)N)NC(=O)[C@@H](NC(=O)[C@H](CC(C)C)NC(=O)[C@H](Cc1ccccc1)NC(=O)[C@H](Cc1c[nH]cn1)NC(=O)[C@H](C)NC(=O)[C@H](CC(C)C)NC(=O)[C@H](CCCNC(=N)N)NC(=O)[C@H](CCC(=O)O)NC(=O)[C@@H](NC(=O)[C@H](C)NC(=O)[C@@H]1CSSC[C@H](NC(=O)[C@H](CCCNC(=N)N)NC(=O)CC[C@H](NC(=O)CCCCCCCCCCCCCCCCCCC(=O)O)C(=O)O)C(=O)NCC(=O)N[C@@H]([C@@H](C)O)C(=O)N[C@@H](C)C(=O)N[C@@H]([C@@H](C)O)C(=O)N1)[C@@H](C)O)[C@@H](C)O
B2: [19CD]-isoGlu-R-C( )-GTAT-C( )-ATERLA-Aad-FLTRSSF-Gly(Me)-A-Ile(Me)-LSSTEVGS-Orn-T-Hyp-NH2 (Compd. 44) (peptide)
peptide: {C20 diacid}-[γGlu]RCGTATCATERLA[Aad]FLTRSSF[Sar]A[NMeI]LSSTEVGS[Orn]T[Hyp]-NH2
modifications: disulfide 3-8
SMILES: CC[C@H](C)[C@@H](C(=O)N[C@@H](CC(C)C)C(=O)N[C@@H](CO)C(=O)N[C@@H](CO)C(=O)N[C@H](C(=O)N[C@@H](CCC(=O)O)C(=O)N[C@H](C(=O)NCC(=O)N[C@@H](CO)C(=O)N[C@@H](CCCN)C(=O)N[C@H](C(=O)N1C[C@H](O)C[C@H]1C(N)=O)[C@@H](C)O)C(C)C)[C@@H](C)O)N(C)C(=O)[C@H](C)NC(=O)CN(C)C(=O)[C@H](Cc1ccccc1)NC(=O)[C@H](CO)NC(=O)[C@H](CO)NC(=O)[C@H](CCCNC(=N)N)NC(=O)[C@@H](NC(=O)[C@H](CC(C)C)NC(=O)[C@H](Cc1ccccc1)NC(=O)[C@H](CCCC(=O)O)NC(=O)[C@H](C)NC(=O)[C@H](CC(C)C)NC(=O)[C@H](CCCNC(=N)N)NC(=O)[C@H](CCC(=O)O)NC(=O)[C@@H](NC(=O)[C@H](C)NC(=O)[C@@H]1CSSC[C@H](NC(=O)[C@H](CCCNC(=N)N)NC(=O)CC[C@H](NC(=O)CCCCCCCCCCCCCCCCCCC(=O)O)C(=O)O)C(=O)NCC(=O)N[C@@H]([C@@H](C)O)C(=O)N[C@@H](C)C(=O)N[C@@H]([C@@H](C)O)C(=O)N1)[C@@H](C)O)[C@@H](C)O
B3: [19CD]-isoGlu-R-C( )-GTAT-C( )-ATERLAHFLTRSSF-Gly(Me)-A-Ile(Me)-LSSTEVGSSTP-NH2 (Compd. 46) (peptide)
peptide: {C20 diacid}-[γGlu]RCGTATCATERLAHFLTRSSF[Sar]A[NMeI]LSSTEVGSSTP-NH2
modifications: disulfide 3-8
SMILES: CC[C@H](C)[C@@H](C(=O)N[C@@H](CC(C)C)C(=O)N[C@@H](CO)C(=O)N[C@@H](CO)C(=O)N[C@H](C(=O)N[C@@H](CCC(=O)O)C(=O)N[C@H](C(=O)NCC(=O)N[C@@H](CO)C(=O)N[C@@H](CO)C(=O)N[C@H](C(=O)N1CCC[C@H]1C(N)=O)[C@@H](C)O)C(C)C)[C@@H](C)O)N(C)C(=O)[C@H](C)NC(=O)CN(C)C(=O)[C@H](Cc1ccccc1)NC(=O)[C@H](CO)NC(=O)[C@H](CO)NC(=O)[C@H](CCCNC(=N)N)NC(=O)[C@@H](NC(=O)[C@H](CC(C)C)NC(=O)[C@H](Cc1ccccc1)NC(=O)[C@H](Cc1c[nH]cn1)NC(=O)[C@H](C)NC(=O)[C@H](CC(C)C)NC(=O)[C@H](CCCNC(=N)N)NC(=O)[C@H](CCC(=O)O)NC(=O)[C@@H](NC(=O)[C@H](C)NC(=O)[C@@H]1CSSC[C@H](NC(=O)[C@H](CCCNC(=N)N)NC(=O)CC[C@H](NC(=O)CCCCCCCCCCCCCCCCCCC(=O)O)C(=O)O)C(=O)NCC(=O)N[C@@H]([C@@H](C)O)C(=O)N[C@@H](C)C(=O)N[C@@H]([C@@H](C)O)C(=O)N1)[C@@H](C)O)[C@@H](C)O
B4: [19CD]-isoGlu-R-C( )-GTAT-C( )-ATERLA-Aad-FLTRSSF-Gly(Me)-A-Ile(Me)-LSSTEVGSST-Hyp-NH2 (Compd. 43) (peptide)
peptide: {C20 diacid}-[γGlu]RCGTATCATERLA[Aad]FLTRSSF[Sar]A[NMeI]LSSTEVGSST[Hyp]-NH2
modifications: disulfide 3-8
SMILES: CC[C@H](C)[C@@H](C(=O)N[C@@H](CC(C)C)C(=O)N[C@@H](CO)C(=O)N[C@@H](CO)C(=O)N[C@H](C(=O)N[C@@H](CCC(=O)O)C(=O)N[C@H](C(=O)NCC(=O)N[C@@H](CO)C(=O)N[C@@H](CO)C(=O)N[C@H](C(=O)N1C[C@H](O)C[C@H]1C(N)=O)[C@@H](C)O)C(C)C)[C@@H](C)O)N(C)C(=O)[C@H](C)NC(=O)CN(C)C(=O)[C@H](Cc1ccccc1)NC(=O)[C@H](CO)NC(=O)[C@H](CO)NC(=O)[C@H](CCCNC(=N)N)NC(=O)[C@@H](NC(=O)[C@H](CC(C)C)NC(=O)[C@H](Cc1ccccc1)NC(=O)[C@H](CCCC(=O)O)NC(=O)[C@H](C)NC(=O)[C@H](CC(C)C)NC(=O)[C@H](CCCNC(=N)N)NC(=O)[C@H](CCC(=O)O)NC(=O)[C@@H](NC(=O)[C@H](C)NC(=O)[C@@H]1CSSC[C@H](NC(=O)[C@H](CCCNC(=N)N)NC(=O)CC[C@H](NC(=O)CCCCCCCCCCCCCCCCCCC(=O)O)C(=O)O)C(=O)NCC(=O)N[C@@H]([C@@H](C)O)C(=O)N[C@@H](C)C(=O)N[C@@H]([C@@H](C)O)C(=O)N1)[C@@H](C)O)[C@@H](C)O
B5: [19CD]-isoGlu-R-C( )-GTAT-C( )-ATERLADFLTRSSF-Gly(Me)-A-Ile(Me)-LSSTEVGSFT-Hyp-NH2 (Compd. 42) (peptide)
peptide: {C20 diacid}-[γGlu]RCGTATCATERLADFLTRSSF[Sar]A[NMeI]LSSTEVGSFT[Hyp]-NH2
modifications: disulfide 3-8
SMILES: CC[C@H](C)[C@@H](C(=O)N[C@@H](CC(C)C)C(=O)N[C@@H](CO)C(=O)N[C@@H](CO)C(=O)N[C@H](C(=O)N[C@@H](CCC(=O)O)C(=O)N[C@H](C(=O)NCC(=O)N[C@@H](CO)C(=O)N[C@@H](Cc1ccccc1)C(=O)N[C@H](C(=O)N1C[C@H](O)C[C@H]1C(N)=O)[C@@H](C)O)C(C)C)[C@@H](C)O)N(C)C(=O)[C@H](C)NC(=O)CN(C)C(=O)[C@H](Cc1ccccc1)NC(=O)[C@H](CO)NC(=O)[C@H](CO)NC(=O)[C@H](CCCNC(=N)N)NC(=O)[C@@H](NC(=O)[C@H](CC(C)C)NC(=O)[C@H](Cc1ccccc1)NC(=O)[C@H](CC(=O)O)NC(=O)[C@H](C)NC(=O)[C@H](CC(C)C)NC(=O)[C@H](CCCNC(=N)N)NC(=O)[C@H](CCC(=O)O)NC(=O)[C@@H](NC(=O)[C@H](C)NC(=O)[C@@H]1CSSC[C@H](NC(=O)[C@H](CCCNC(=N)N)NC(=O)CC[C@H](NC(=O)CCCCCCCCCCCCCCCCCCC(=O)O)C(=O)O)C(=O)NCC(=O)N[C@@H]([C@@H](C)O)C(=O)N[C@@H](C)C(=O)N[C@@H]([C@@H](C)O)C(=O)N1)[C@@H](C)O)[C@@H](C)O

Target: T1, human amylin receptor 3 (hAMYR3), hCTR2 co-expressed with human receptor activity modifying protein 3 (hRAMP3) (human, UniProt P30988 25-474; O60896 24-148)
T1 sequence (looked up) 1: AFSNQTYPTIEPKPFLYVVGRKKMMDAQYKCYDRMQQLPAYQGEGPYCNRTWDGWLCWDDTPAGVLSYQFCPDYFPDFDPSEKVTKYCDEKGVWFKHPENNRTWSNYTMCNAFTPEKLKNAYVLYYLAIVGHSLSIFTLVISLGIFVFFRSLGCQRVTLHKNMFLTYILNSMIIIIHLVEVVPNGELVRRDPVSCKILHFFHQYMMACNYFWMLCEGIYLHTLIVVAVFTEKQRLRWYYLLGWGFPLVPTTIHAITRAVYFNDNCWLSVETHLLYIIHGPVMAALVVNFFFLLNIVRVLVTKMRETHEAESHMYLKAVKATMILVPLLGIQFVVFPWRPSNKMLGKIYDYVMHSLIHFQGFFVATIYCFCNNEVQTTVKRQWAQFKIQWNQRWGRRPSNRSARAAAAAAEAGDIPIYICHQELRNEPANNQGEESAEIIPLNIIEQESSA
T1 sequence (looked up) 2: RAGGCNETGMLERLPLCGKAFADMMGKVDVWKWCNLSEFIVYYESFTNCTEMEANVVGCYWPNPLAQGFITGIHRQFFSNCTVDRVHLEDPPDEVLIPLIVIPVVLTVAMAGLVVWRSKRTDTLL
Assay: cell-based or functional assay

Row | Binder | hAMYR3 EC50 (nM); cAMP induction
1 | B1 | 0.31 nM
2 | B2 | 0.3 nM
3 | B3 | 0.14 nM
4 | B4 | 0.35 nM
5 | B5 | 0.34 nM
